Assay results taken from US20260166140A1, “Combinations Involving Epidermal Growth Factor Receptor Tyrosine Kinase Inhibitors For the Treatment of Cancer” (AstraZeneca AB, priority 2022, published 2026).
Residue numbers refer to the chain shown, from its start.

Tests used:
Cynomolgus monkey EGFR = assay: SPR (BIAcore T200) antibody capture kinetics; format: binding; conditions: 25° C.
Method: (§1) Mouse anti-human IgG was immobilized on a CM4 sensor chip with a final surface density of ˜2000 resonance units (RUs). A reference flow cell surface was also prepared on this sensor chip using identical immobilization protocol. Test and control article antibodies were prepared at 5-20 nM in instrument buffer (HBS-EP buffer; 0.01M HEPES, pH 7.4, 0.15M NaCl, 3 mM EDTA, and 0.005% P-20), along with 3-fold serial dilutions of purified EGFR (0.27-200 nM human, 0.4-900 nM cyno, and 4-1000 nM murine) or cMET proteins (0.27 to 66 nM human and 0.27-22 nM cyno) in instrument buffer. A sequential approach was utilized for kinetic measurements. Antibodies were first injected over the capture surface, at a flow rate of 10 μL/minute. Once the binding of the captured antibody stabilized, a single concentration of the analyte was injected over both capture and reference surfaces, at a flow rate of 75 μL/minute. The resulting binding response curves yielded the association phase data. Following the injection of analyte, the flow was then switched back to instrument buffer for 15 minutes to permit the collection of dissociation phase data, followed by a 1-minute pulse of 10 mM glycine, pH 1.5, to regenerate the antibody-captured surface on the chip. Binding responses against test and control article antibodies were recorded from duplicate injections of each concentration of analyte. In addition, several buffer injections were interspersed throughout the injection series. Select buffer injections were used along with the reference cell responses to correct the raw data sets for injection artifacts and/or nonspecific binding interactions, commonly referred to as “double referencing”. Corrected binding data were globally fit to a 1:1 binding model (Biacore T200 Evaluation software 2.0, GE Healthcare, Pittsburgh, PA).

Cynomolgus monkey cMET = assay: SPR (BIAcore T200) antibody capture kinetics; format: binding; conditions: 25° C.
Cynomolgus monkey cMET, sequence (as listed by the source): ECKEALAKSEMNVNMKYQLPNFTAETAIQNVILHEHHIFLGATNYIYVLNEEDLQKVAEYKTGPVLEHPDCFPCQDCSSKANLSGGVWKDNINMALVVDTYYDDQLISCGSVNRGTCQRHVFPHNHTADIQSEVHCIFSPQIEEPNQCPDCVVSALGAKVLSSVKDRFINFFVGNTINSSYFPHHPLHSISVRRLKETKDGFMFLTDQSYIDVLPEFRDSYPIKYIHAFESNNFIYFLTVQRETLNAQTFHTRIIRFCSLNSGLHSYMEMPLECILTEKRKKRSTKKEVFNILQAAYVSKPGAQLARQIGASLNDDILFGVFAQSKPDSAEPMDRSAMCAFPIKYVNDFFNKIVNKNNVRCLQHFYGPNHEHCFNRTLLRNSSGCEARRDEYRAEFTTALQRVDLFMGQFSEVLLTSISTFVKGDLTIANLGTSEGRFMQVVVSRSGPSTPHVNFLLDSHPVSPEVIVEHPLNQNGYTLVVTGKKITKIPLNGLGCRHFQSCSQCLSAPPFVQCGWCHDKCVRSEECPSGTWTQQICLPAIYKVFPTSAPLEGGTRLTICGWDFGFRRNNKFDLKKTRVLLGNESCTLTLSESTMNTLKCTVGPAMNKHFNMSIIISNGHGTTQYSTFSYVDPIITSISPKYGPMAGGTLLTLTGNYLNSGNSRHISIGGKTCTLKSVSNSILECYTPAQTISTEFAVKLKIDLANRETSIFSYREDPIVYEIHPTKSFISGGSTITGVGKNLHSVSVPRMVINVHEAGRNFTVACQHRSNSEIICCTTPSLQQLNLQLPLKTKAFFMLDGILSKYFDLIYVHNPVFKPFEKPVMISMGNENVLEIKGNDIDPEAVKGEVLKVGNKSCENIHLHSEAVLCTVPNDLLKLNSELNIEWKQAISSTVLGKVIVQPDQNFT
Method: as §1

Human EGFR = Human EGFR (Homo sapiens, UniProt P00533); assay: SPR (BIAcore T200) antibody capture kinetics; format: binding; conditions: for Koff / Kon: 25° C.; for Kon: 1:1 binding model
Method: as §1

Human cMET = Human cMET (Homo sapiens, UniProt P08581); assay: SPR (BIAcore T200) antibody capture kinetics; format: binding; conditions: for Koff / Kon: 25° C.
Human cMET, sequence (P08581 25-932): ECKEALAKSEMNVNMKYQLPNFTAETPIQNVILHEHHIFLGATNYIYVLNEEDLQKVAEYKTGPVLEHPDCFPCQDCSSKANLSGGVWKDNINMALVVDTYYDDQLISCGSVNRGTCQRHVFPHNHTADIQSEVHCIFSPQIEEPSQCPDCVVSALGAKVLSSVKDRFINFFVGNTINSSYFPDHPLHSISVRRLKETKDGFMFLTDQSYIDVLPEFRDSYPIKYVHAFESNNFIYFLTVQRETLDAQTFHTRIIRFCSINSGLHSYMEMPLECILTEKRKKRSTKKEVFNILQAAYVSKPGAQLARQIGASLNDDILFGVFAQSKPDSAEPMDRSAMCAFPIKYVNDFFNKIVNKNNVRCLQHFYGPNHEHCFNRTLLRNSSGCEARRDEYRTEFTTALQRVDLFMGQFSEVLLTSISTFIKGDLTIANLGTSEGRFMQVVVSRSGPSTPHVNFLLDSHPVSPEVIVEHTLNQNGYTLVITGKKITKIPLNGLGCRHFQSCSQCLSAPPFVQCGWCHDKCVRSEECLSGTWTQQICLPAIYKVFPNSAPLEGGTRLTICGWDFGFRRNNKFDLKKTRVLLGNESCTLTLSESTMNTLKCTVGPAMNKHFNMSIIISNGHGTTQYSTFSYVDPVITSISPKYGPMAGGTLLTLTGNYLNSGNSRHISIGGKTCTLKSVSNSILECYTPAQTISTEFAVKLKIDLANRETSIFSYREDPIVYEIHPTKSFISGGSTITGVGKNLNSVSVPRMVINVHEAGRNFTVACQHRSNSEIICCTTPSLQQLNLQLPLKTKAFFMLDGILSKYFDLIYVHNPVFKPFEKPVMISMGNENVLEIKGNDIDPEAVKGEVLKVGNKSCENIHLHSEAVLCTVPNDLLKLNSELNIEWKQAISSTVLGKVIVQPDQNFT
Method: as §1

Mouse EGFR = molecular target: T1, Mouse EGFR (Mus musculus, UniProt Q01279); assay: SPR (BIAcore T200) antibody capture kinetics; format: binding; conditions: for Koff / Kon: 25° C.
T1 construct: purchased SinoBiological 51091-M08H
Method: as §1

[1] = molecular target: T2, Human EGFR (recombinant, soluble monomeric) (human, UniProt P00533 25-645); assay: SPR, Biacore T200, antibody captured on anti-human IgG, soluble monomeric antigen as analyte, 25 C
T2 construct: also called EGFR antigen

[2] = molecular target: T3, Cynomolgus monkey EGFR (recombinant, soluble monomeric) (cynomolgus monkey, UniProt P55245 25-645 (rhesus entry)); assay: as above
T3 construct: also called cyno EGFR

[3] = molecular target: T4, Human cMET (recombinant, soluble monomeric) (human, UniProt P08581 25-932); assay: as above
T4 construct: in the HTRF assay it is called the human cMET receptor; also called His-tagged cMET antigen
T4 sequence (P08581 25-932): as above

HER4 = molecular target: T5, HER4 (UniProt Q15303 26-649, limits assumed); assay: ELISA: antigen coated at 1 ug/mL, antibody dilution series, goat anti-human Fab-HRP, A450; panel Human HER4
T5 construct: also called EGFR HER family protein HER4
T5 sequence (looked up): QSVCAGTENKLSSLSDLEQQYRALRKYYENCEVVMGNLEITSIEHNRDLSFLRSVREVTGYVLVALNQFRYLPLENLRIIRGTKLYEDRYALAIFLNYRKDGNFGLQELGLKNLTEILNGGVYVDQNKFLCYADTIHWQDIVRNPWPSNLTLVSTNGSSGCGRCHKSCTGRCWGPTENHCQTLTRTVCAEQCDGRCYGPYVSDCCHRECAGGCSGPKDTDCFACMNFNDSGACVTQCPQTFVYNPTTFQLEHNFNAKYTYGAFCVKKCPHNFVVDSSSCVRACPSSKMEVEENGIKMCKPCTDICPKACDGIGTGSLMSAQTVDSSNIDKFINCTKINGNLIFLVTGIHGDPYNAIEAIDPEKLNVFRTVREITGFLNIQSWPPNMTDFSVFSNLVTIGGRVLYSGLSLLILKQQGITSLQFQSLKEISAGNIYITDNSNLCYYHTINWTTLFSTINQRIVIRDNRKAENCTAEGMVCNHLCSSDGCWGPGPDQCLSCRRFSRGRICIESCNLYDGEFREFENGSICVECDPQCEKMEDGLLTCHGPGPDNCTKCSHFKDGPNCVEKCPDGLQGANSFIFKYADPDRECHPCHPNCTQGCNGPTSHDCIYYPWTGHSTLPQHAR

B1: RAA22/B09-57 DuetMab (bispecific antibody, human IgG1, kappa, lambda)
heavy 1: QVQLVQSGAEVKKPGSSVKVSCKASGGTFSDNDFSWVRQAPGQGLEWMGAIVAVFRTETYAQKFQDRVKITADISTRTTYMELSSLRSEDTAVYYCARRLMSAISGPGAPLLMWGQGTLVTVSSASTKGPSVFPLAPSSKSTSGGTAALGCLVKDYFPEPVTVSWNSGALTSGVHTFPAVLQSSGLYSLSSVVTVPSSSLGTQTYICNVNHKPSNTKVDKRVEPKSCDKTHTCPPCPAPELLGGPSCVFLFPPKPKDTLMISRTPEVTCVVVDVSHEDPEVKFNWYVDGVEVHNAKTKPREEQYNSTYRVVSVLTVLHQDWLNGKEYKCKVSNKALPAPIEKTISKAKGQPREPQVCTLPPSREEMTKNQVSLSCAVKGFYPSDIAVEWESNGQPENNYKTTPPVLDSDGSFFLVSKLTVDKSRWQQGNVFSCSVMHEALHNHYTQKSLSLSPGK
heavy 2: QVQLVQSGAEVKKPGASVKVSCKASGYTFTDYYIHWVRQATGQGLEWMGWMNPNSGNTGYAQKFQGRVTMTRDTSISTAYMELSSLRSEDTAVYYCARGQGYTHSWGQGTMVTVSSASTKGPSVCPLAPSSKSTSGGTAALGCLVKDYFPEPVTVSWNSGALTSGVHTFPAVLQSSGLYSLSSVVTVPSSSLGTQTYICNVNHKPSNTKVDKRVEPKSVDKTHTCPPCPAPELLGGPSCVFLFPPKPKDTLMISRTPEVTCVVVDVSHEDPEVKFNWYVDGVEVHNAKTKPREEQYNSTYRVVSVLTVLHQDWLNGKEYKCKVSNKALPAPIEKTISKAKGQPREPQVYTLPPCREEMTKNQVSLWCLVKGFYPSDIAVEWESNGQPENNYKTTPPVLDSDGSFFLYSKLTVDKSRWQQGNVFSCSVMHEALHNHYTQKSLSLSPG
light 1: QSALTQPRSVSGSPGQSVTISCTGTSSDVGGYNYVSWYQQHPGKAPKLMIYDVSKRPSGVPDRFSGSKSGNTASLTISGLQAEDEADYYCSSYTSSDTLEIFGGGTKLTVLGQPKAAPSVTLFPPSSEELQANKATLVCLISDFYPGAVTVAWKADSSPVKAGVETTTPSKQSNNKYAASSYLSLTPEQWKSHRSYSCQVTHEGSTVEKTVAPTECS
light 2: DIQMTQSPSTLSASVGDRVTITCRASEGIYHWLAWYQQKPGKAPKLLIYKASSLASGVPSRFSGSGSGTEFTLTISSLQPDDFATYYCQQYSNYPPTFGGGTKLEIKRTVAAPSVFIFPPCDEQLKSGTASVVCLLNNFYPREAKVQWKVDNALQSGNSQESVTEQDSKDSTYSLSSTLTLSKADYEKHKVYACEVTHQGLSSPVTKSFNRGEV
notes: also called monovalent bispecific EGFR/cMET DuetMAb RAA22/B09; RAA22/B09-Maia
B1 gave a Koff (Cynomolgus monkey EGFR) of 0.00548 s⁻¹, a Kon (Cynomolgus monkey EGFR) of 27800 M⁻¹ s⁻¹ and a Koff (Cynomolgus monkey cMET) of 0.00212 s⁻¹. For the same molecule, the Kon (Cynomolgus monkey cMET) was 974000 M⁻¹ s⁻¹, the Koff (Human EGFR) was 0.00201 s⁻¹ and the Kon (Human EGFR) was 44700 M⁻¹ s⁻¹. The Koff (Human cMET) was 0.000986 s⁻¹, the Kon (Human cMET) was 443000 M⁻¹ s⁻¹ and the Kd (Human cMET; koff/kon) was ~2 nM. The Koff (Mouse EGFR) was 0.0206 s⁻¹, the Kon (Mouse EGFR) was 35400 M⁻¹ s⁻¹ and the Kd [1] was 45 nM. For the same molecule, the koff [1] was 0.00201 s⁻¹, the kon [1] was 44700 M⁻¹ s⁻¹ and the Kd [2] was 197 nM. For the same molecule, the koff [2] was 0.00548 s⁻¹, the kon [2] was 27800 M⁻¹ s⁻¹ and the Kd [3] was 2.2 nM. The koff [3] was 0.000986 s⁻¹, the kon [3] was 443000 M⁻¹ s⁻¹ and the binding result (HER4) was “no binding (tested: 10 ug/ml)”.

B2: QD6/B09-57 DuetMab (bispecific antibody, human IgG1, kappa, lambda)
heavy 1: B1 heavy 1 with F55V
heavy 2: B1 heavy 2
light 1: B1 light 1 with K55E, S91F
light 2: B1 light 2
notes: also called monovalent bispecific EGFR/cMET DuetMAb QD6/B09
B2 showed a Koff (Cynomolgus monkey EGFR) of 0.000585 s⁻¹, a Kon (Cynomolgus monkey EGFR) of 210000 M⁻¹ s⁻¹ and a Koff (Cynomolgus monkey cMET) of 0.00206 s⁻¹. It also gave a Kon (Cynomolgus monkey cMET) of 958000 M⁻¹ s⁻¹, a Koff (Human EGFR) of 0.000374 s⁻¹ and a Kon (Human EGFR) of 63500 M⁻¹ s⁻¹. It also gave a Kd (Human EGFR; KD calculated as koff/kon) of ~6 nM, a Koff (Human cMET) of 0.000696 s⁻¹ and a Kon (Human cMET) of 425000 M⁻¹ s⁻¹. It also gave a Koff (Mouse EGFR) of 0.00078 s⁻¹, a Kon (Mouse EGFR) of 126000 M⁻¹ s⁻¹ and a Kd (Mouse EGFR; koff/kon) of ~6 nM. The Kd [1] was 5.9 nM, the koff [1] was 0.000374 s⁻¹ and the kon [1] was 63500 M⁻¹ s⁻¹. The Kd [2] was 2.8 nM, the koff [2] was 0.000585 s⁻¹ and the kon [2] was 210000 M⁻¹ s⁻¹. It also gave a Kd [3] of 1.6 nM, a koff [3] of 0.000696 s⁻¹ and a kon [3] of 425000 M⁻¹ s⁻¹. B2: no binding (tested: 10 ug/ml) (HER4).
